Test results taken from patent US20140348819A1, “Methods of Treating Cancer” (Dana-Farber Cancer Institute, Inc., priority 2011, published 2014).

Test system: six V600E BRAF melanoma cell lines
Test: Screening of recombinant RTK ligands for ability to confer resistance to BRAFi (PLX4720) or MEKi (PD184352) (Table 4)
Format: cell-based, human
Design: ability of recombinant RTK ligand to confer resistance / ability of recombinant RTK ligand to confer resistance (screening value): scale not given here
Summary of the method: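 Six V600E BRAF melanoma lines treated with PLX4720 or PD184352 after addition of 22 recombinant RTK ligands, scored for drug resistance. Activation of selected RTKs confirmed by western blotting and high-throughput tyrosine kinase phosphorylation profiling.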

B1: BDNF (protein, UniProt P23560 19-247, looked up)
Neurotrophic factor BDNF …: APMKEANIRGQGGLAYPGVRTHGTLESVNGPKAGSRGLTSLADTFEHVIEELLDEDQKVRPNEENNKDADLYTSRVMLSSQVPLEPPLLFLLEEYKNYLDAANMSMRVRRHSDPARRGELSVCDSISEWVTAADKKTAVDMSGGTVTVLEKVPVSKGQLKQYFYETKCNPMGYTKEGCRGIDKRHWNSQCRTTQSYVRALTMDSKKRIGWRFIRIDTSCVCTLTIKRGR
A2058, PD184352 - 1 uM, ligand 0.4 ng/ml
  ability of recombinant RTK ligand to confer resistance: 0.99
A2058, PD184352 - 1 uM, ligand 1.6 ng/ml
  ability of recombinant RTK ligand to confer resistance: 0.97
A2058, PD184352 - 1 uM, ligand 6.25 ng/ml
  ability of recombinant RTK ligand to confer resistance: 0.94
A2058, PD184352 - 1 uM, ligand 25 ng/ml
  ability of recombinant RTK ligand to confer resistance: 1.03
A2058, PD184352 - 1 uM, ligand 100 ng/ml
  ability of recombinant RTK ligand to confer resistance: 1.10
A2058, PLX4720 - 2 uM, ligand 0.4 ng/ml
  ability of recombinant RTK ligand to confer resistance: 1.00
A2058, PLX4720 - 2 uM, ligand 1.6 ng/ml
  ability of recombinant RTK ligand to confer resistance: 0.95
A2058, PLX4720 - 2 uM, ligand 6.25 ng/ml
  ability of recombinant RTK ligand to confer resistance: 0.95
A2058, PLX4720 - 2 uM, ligand 25 ng/ml
  ability of recombinant RTK ligand to confer resistance: 0.98
A2058, PLX4720 - 2 uM, ligand 100 ng/ml
  ability of recombinant RTK ligand to confer resistance: 1.15
C32, PD184352 - 1 uM, ligand 0.4 ng/ml
  ability of recombinant RTK ligand to confer resistance: 1.03
C32, PD184352 - 1 uM, ligand 1.6 ng/ml
  ability of recombinant RTK ligand to confer resistance: 1.01
C32, PD184352 - 1 uM, ligand 6.25 ng/ml
  ability of recombinant RTK ligand to confer resistance: 1.06
C32, PD184352 - 1 uM, ligand 25 ng/ml
  ability of recombinant RTK ligand to confer resistance: 1.03
C32, PD184352 - 1 uM, ligand 100 ng/ml
  ability of recombinant RTK ligand to confer resistance: 0.95
C32, PLX4720 - 2 uM, ligand 0.4 ng/ml
  ability of recombinant RTK ligand to confer resistance: 1.09
C32, PLX4720 - 2 uM, ligand 1.6 ng/ml
  ability of recombinant RTK ligand to confer resistance: 0.99
C32, PLX4720 - 2 uM, ligand 6.25 ng/ml
  ability of recombinant RTK ligand to confer resistance: 1.02
C32, PLX4720 - 2 uM, ligand 25 ng/ml
  ability of recombinant RTK ligand to confer resistance: 1.01
C32, PLX4720 - 2 uM, ligand 100 ng/ml
  ability of recombinant RTK ligand to confer resistance: 0.94
Colo 829, PD184352 - 1 uM, ligand 0.4 ng/ml
  ability of recombinant RTK ligand to confer resistance: 1.03
Colo 829, PD184352 - 1 uM, ligand 1.6 ng/ml
  ability of recombinant RTK ligand to confer resistance: 0.99
Colo 829, PD184352 - 1 uM, ligand 6.25 ng/ml
  ability of recombinant RTK ligand to confer resistance: 0.98
Colo 829, PD184352 - 1 uM, ligand 25 ng/ml
  ability of recombinant RTK ligand to confer resistance: 0.98
Colo 829, PD184352 - 1 uM, ligand 100 ng/ml
  ability of recombinant RTK ligand to confer resistance: 0.93
Colo 829, PLX4720 - 2 uM, ligand 0.4 ng/ml
  ability of recombinant RTK ligand to confer resistance: 1.02
Colo 829, PLX4720 - 2 uM, ligand 1.6 ng/ml
  ability of recombinant RTK ligand to confer resistance: 1.00
Colo 829, PLX4720 - 2 uM, ligand 6.25 ng/ml
  ability of recombinant RTK ligand to confer resistance: 0.96
Colo 829, PLX4720 - 2 uM, ligand 25 ng/ml
  ability of recombinant RTK ligand to confer resistance: 0.95
Colo 829, PLX4720 - 2 uM, ligand 100 ng/ml
  ability of recombinant RTK ligand to confer resistance: 0.94
G-361, PD184352 - 1 uM, ligand 0.4 ng/ml
  ability of recombinant RTK ligand to confer resistance: 1.09
G-361, PD184352 - 1 uM, ligand 1.6 ng/ml
  ability of recombinant RTK ligand to confer resistance: 0.95
G-361, PD184352 - 1 uM, ligand 6.25 ng/ml
  ability of recombinant RTK ligand to confer resistance: 1.03
G-361, PD184352 - 1 uM, ligand 25 ng/ml
  ability of recombinant RTK ligand to confer resistance: 0.91
G-361, PD184352 - 1 uM, ligand 100 ng/ml
  ability of recombinant RTK ligand to confer resistance: 0.91
G-361, PLX4720 - 2 uM, ligand 0.4 ng/ml
  ability of recombinant RTK ligand to confer resistance: 0.98
G-361, PLX4720 - 2 uM, ligand 1.6 ng/ml
  ability of recombinant RTK ligand to confer resistance: 0.82
G-361, PLX4720 - 2 uM, ligand 6.25 ng/ml
  ability of recombinant RTK ligand to confer resistance: 1.04
G-361, PLX4720 - 2 uM, ligand 25 ng/ml
  ability of recombinant RTK ligand to confer resistance: 0.89
G-361, PLX4720 - 2 uM, ligand 100 ng/ml
  ability of recombinant RTK ligand to confer resistance: 0.87
SK-MEL-5, PD184352 - 1 uM, ligand 0.4 ng/ml
  ability of recombinant RTK ligand to confer resistance: 1.01
SK-MEL-5, PD184352 - 1 uM, ligand 1.6 ng/ml
  ability of recombinant RTK ligand to confer resistance: 0.97
SK-MEL-5, PD184352 - 1 uM, ligand 6.25 ng/ml
  ability of recombinant RTK ligand to confer resistance: 1.01
SK-MEL-5, PD184352 - 1 uM, ligand 25 ng/ml
  ability of recombinant RTK ligand to confer resistance: 0.96
SK-MEL-5, PD184352 - 1 uM, ligand 100 ng/ml
  ability of recombinant RTK ligand to confer resistance: 0.97
SK-MEL-5, PLX4720 - 2 uM, ligand 0.4 ng/ml
  ability of recombinant RTK ligand to confer resistance: 1.07
SK-MEL-5, PLX4720 - 2 uM, ligand 1.6 ng/ml
  ability of recombinant RTK ligand to confer resistance: 1.02
SK-MEL-5, PLX4720 - 2 uM, ligand 6.25 ng/ml
  ability of recombinant RTK ligand to confer resistance: 1.07
SK-MEL-5, PLX4720 - 2 uM, ligand 25 ng/ml
  ability of recombinant RTK ligand to confer resistance: 1.08
SK-MEL-5, PLX4720 - 2 uM, ligand 100 ng/ml
  ability of recombinant RTK ligand to confer resistance: 1.04
SK-MEL-28, PD184352 - 1 uM, ligand 0.4 ng/ml
  ability of recombinant RTK ligand to confer resistance: 1.04
SK-MEL-28, PD184352 - 1 uM, ligand 1.6 ng/ml
  ability of recombinant RTK ligand to confer resistance: 1.04
SK-MEL-28, PD184352 - 1 uM, ligand 6.25 ng/ml
  ability of recombinant RTK ligand to confer resistance: 0.91
SK-MEL-28, PD184352 - 1 uM, ligand 25 ng/ml
  ability of recombinant RTK ligand to confer resistance: 0.97
SK-MEL-28, PD184352 - 1 uM, ligand 100 ng/ml
  ability of recombinant RTK ligand to confer resistance: 1.07
SK-MEL-28, PLX4720 - 2 uM, ligand 0.4 ng/ml
  ability of recombinant RTK ligand to confer resistance: 0.97
SK-MEL-28, PLX4720 - 2 uM, ligand 1.6 ng/ml
  ability of recombinant RTK ligand to confer resistance: 1.12
SK-MEL-28, PLX4720 - 2 uM, ligand 6.25 ng/ml
  ability of recombinant RTK ligand to confer resistance: 0.99
SK-MEL-28, PLX4720 - 2 uM, ligand 25 ng/ml
  ability of recombinant RTK ligand to confer resistance: 1.08
SK-MEL-28, PLX4720 - 2 uM, ligand 100 ng/ml
  ability of recombinant RTK ligand to confer resistance: 0.99
